Data: US20060063727, “Tr4/tr2 response elements” (published 2006)

Experiments:
[1] = molecular target: T1, TR4 orphan receptor (NR2C2) (Homo sapiens) (UniProt P49116); assay: competition; details: competitive EMSA
T1 sequence: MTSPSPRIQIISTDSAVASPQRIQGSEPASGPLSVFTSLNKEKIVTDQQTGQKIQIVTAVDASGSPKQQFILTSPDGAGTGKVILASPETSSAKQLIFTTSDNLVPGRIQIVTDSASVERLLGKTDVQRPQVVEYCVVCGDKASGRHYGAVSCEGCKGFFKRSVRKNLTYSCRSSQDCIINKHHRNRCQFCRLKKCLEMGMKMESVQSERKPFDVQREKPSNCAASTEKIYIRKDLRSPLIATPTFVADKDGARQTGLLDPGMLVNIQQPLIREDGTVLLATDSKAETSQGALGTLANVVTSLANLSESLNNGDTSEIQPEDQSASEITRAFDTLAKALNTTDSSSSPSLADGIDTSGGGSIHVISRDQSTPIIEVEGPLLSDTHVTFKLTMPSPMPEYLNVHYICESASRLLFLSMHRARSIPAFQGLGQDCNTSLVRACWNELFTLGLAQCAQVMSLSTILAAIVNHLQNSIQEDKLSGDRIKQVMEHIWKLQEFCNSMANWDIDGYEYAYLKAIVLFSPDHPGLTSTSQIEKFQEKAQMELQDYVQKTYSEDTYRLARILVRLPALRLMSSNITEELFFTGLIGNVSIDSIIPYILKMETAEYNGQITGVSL

[2] = molecular target: T2, TR2 orphan receptor (TR2-11, NR2C1) (Homo sapiens, UniProt P13056 SEQ:1-603); assay: EMSA; Scatchard; 25 mM Tris pH 8.0, 50 mM KCl, poly(dI.dC); details: tags: none stated, pSG5-hTR2-11, TNT rabbit reticulocyte lysate; label: 32P
T2 chain: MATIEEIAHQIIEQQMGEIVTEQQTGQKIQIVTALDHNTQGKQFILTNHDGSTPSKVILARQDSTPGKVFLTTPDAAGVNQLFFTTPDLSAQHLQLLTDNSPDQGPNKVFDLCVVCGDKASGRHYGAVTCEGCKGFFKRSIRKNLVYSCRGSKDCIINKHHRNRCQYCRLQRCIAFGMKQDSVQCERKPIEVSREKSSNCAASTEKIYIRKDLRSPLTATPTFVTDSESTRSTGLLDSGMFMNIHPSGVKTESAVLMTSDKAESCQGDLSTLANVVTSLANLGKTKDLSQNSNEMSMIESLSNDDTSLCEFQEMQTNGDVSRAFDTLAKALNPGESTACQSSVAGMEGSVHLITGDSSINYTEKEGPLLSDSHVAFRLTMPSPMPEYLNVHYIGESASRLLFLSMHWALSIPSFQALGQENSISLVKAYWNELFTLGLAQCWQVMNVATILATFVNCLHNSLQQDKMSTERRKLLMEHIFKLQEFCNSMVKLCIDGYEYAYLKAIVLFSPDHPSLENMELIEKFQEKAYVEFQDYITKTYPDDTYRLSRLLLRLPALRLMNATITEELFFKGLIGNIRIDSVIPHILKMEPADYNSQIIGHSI
Experimental: Electrophoretic mobility shift assay analysis was performed as previously described (Jiang, C. K. et al. (1991) J Invest Dermatol 97, 969-973). The oligonucleotides were 5′ end labeled with γ-³²P ATP (specific activity=6000 Ci/mmole) (New England Nuclear) by T4 polynucleotide kinase. The specific activity reached 2-8×10⁸ cpm/μg. Labeled oligonucleotides (0.1 ng) were incubated with in vitro translated proteins, in the presence or absence of unlabeled oligonucleotide competitor or rabbit antiserum against TR2 (Cooney, A. J. et al. (1993) J Biol Chem 268, 4152-4160), for 15 min at room temperature. The binding buffer contained 25 mM Tris-HCl (pH 8.0), 10% glycerol, 50 mM KCl, 2 mM EDTA, 0.05% TritonX-100, 5 mM DTT, 1% β-mercaptoethanol, 5 ng/ml bovine serum albumin, 1.5 units/ml aprotinin, and 1 μg poly(dI.dC) (Pharmacia). […] The radioactive gels were analyzed by PhosphorImager (Molecular Dynamics). […]
To clarify the potential mechanism for the differential regulation of PPARα signal pathway by TR2 and TR4, the Kds (equilibrium dissociation constants) for TR2 and TR4 binding to PPRE were calculated using Scatchard analysis. […] The Kd values calculated here were consistent with the range of Kd values for nuclear receptors and their hormone response elements.

[3] = molecular target: T2, TR2 orphan receptor (TR2-11, NR2C1); assay: EMSA; competed by excess unlabeled oligo; supershift with anti-TR2 G204; details: tags: none stated, pSG5-hTR2-11, TNT rabbit reticulocyte lysate; label: 32P
Experimental: EMSA analysis was performed as described previously (Lee, H. J., and Chang, C. (1995) J. Biol. Chem. 270, 5434-5440). […] For competition reactions, unlabeled HPV-16 DR4RE oligonucleotides were mixed with labeled probe prior to its addition to the reaction. Antibody shift analysis involved the addition of 1 μl of the monoclonal anti-TR2 orphan receptor antibody, G204, to the reaction for 15 min., at room temperature, prior to gel loading.
The site consists of two consensus A(G/T)(G/T)TCA half sites with a spacing of 4 nucleotides (ATGTCAccctAGTTCA). To determine whether TR2 was able to bind the HPV-16 DR4RE, gel shift analysis was performed. […] Also in FIG. 3A, a mock in vitro transcription/translation reaction was used in lane 3, and lane 4 contains ³²P-labeled HPV-16 DR4RE alone. To further confirm the binding specificity of TR2 for the HPV-16 DR4RE, a TR2-specific monoclonal antibody was added, resulting in an upward shift of the labeled complex (FIG. 3B).

Q: CRBPII (DR1) was tested. Which IC50 ([1]; best of natural elements) did it give?
A: 0.023 ng

Q: Which IC50 ([1]; range end assigned by order, weakest synthetic DR) does the source give for DR4 synthetic here?
A: 0.24 ng

Q: How did the IC50 ([1]; range end assigned by order DR6>DR5>DR1>DR3>DR2>DR4) turn out when DR6 synthetic was run?
A: 0.08 ng

Q: For ERE (palindrome), which IC50 ([1]; weakest natural element, bound poorly, range end assigned by order) is on record?
A: 85 ng

B1: PPRE (rat acyl-CoA oxidase) (dsDNA)
DNA 1: GTCGACAGGGGACCAGGACAAAGGTCACGTTCGGGAGTCGAC
DNA 2: GTCGACTCCCGAACGTGACCTTTGTCCTGGTCCCCTGTCGAC
Q: With B1 as the molecule, how does the Kd [2] read?
A: 1.23 nM

B2: HPV-16 DR4RE (dsDNA)
DNA 1: ATGTCACCCTAGTTCA
DNA 2: TGAACTAGGGTGACAT
Q: Does B2 bind [3]?
A: binds
